Data on 72 sequences can be found in the supplement of paper PMC10567573.

The series in a line: protein stability index of a GFP-peptide fusion (GPS, HEK-293T) (PSI 1-6); higher = more stable.
Where [1] appears, read: treatment: DMSO, c terminus: a fixed tail appended.
[2] abbreviates: treatment: MLN4924 1 uM, 8 h, c terminus: a fixed tail appended.
The mark [3] stands for this setting: treatment: DMSO, c terminus: native.
[4] abbreviates: treatment: MLN4924 1 uM, 8 h, c terminus: native.

± gives the standard deviation.
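Also: 24-mer peptide tiles fused after GFP, lentivirally expressed, FACS-sorted into six equal bins by GFP/DsRed ratio, decoded by Illumina sequencing, PSI is the read-weighted mean bin number.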

GAFYRRAQRLRPQDEPRQGCQPED [KCNG1]: the protein stability index is, setting by setting: under setting [1], 5.21 ± 0.18; under setting [2], 5.11 ± 0.11.
The corresponding values for GALLAPIRVLLAFIVLFLLWPFAW [LPCAT4] are 2.68 ± 0.51 and 2.67 ± 0.54.
GASLYAISNVCEEYIVKKLSRQEF [SLC35F2]: the protein stability index reads like this: under setting [1], 2.3 ± 0.27; under setting [2], 2.45 ± 0.43.
On to GCCVFAFLVGLLFVQRSGNYFVTM [SLC6A17], for which the protein stability index under setting [1] came to 3.39 ± 0.34 and the protein stability index under setting [2] stood at 3.12 ± 0.07.
For the sequence GCSLTADGLPLHFFIQTVRPKDTV [MYORG], the protein stability index amounted to 2.3 ± 0.25 under setting [1] and 2.19 ± 0.33 under setting [2].
The corresponding values for GCWAWPLAGLSVGRSSLTACSLPL [PXN] are 1.99 ± 0.86 and 2.15 ± 0.82.
With GFTPLHMAVDKDTTNVGRYPVGRF [FEM1A], the protein stability index was 3.43 ± 0.089 under setting [1] and 3.6 ± 0.36 under setting [2].
For GGGPSATEWACILRRKTPRHKQPT [C6orf223], in that order: 3.57 ± 0.12 and 3.72 ± 0.16.
GGLGGGYGGGLGGGFGGGFAGGFV [KRT13] came in with a protein stability index under setting [1] of 2.16 ± 0.25 and a protein stability index under setting [2] of 2.1 ± 0.82.
For GGQDGLGAPKDQQQPPQQQPSQQQ [KLHL14], in that order: 5.36 ± 0.5 and 5.4 ± 0.56.
For GGYEKASKRMTFQMPKFDLGPLLS [MYOZ1], in that order: 2.54 ± 0.32 and 2.64 ± 0.22.
The corresponding values for GHCLLDKPEAPLHLPVTFPGKDYD [ADAMTS4] are 4.14 ± 0.26 and 4.4 ± 0.3.
The sequence GKKEIKPFKRFLRKKSKPKKCVKK [SMOC2] had a protein stability index under setting [1] of 3.1 ± 0.25.
For the sequence GKSVSSSSSVETGPSVSEPPGLPR [SPATS1], the protein stability index came to 5.08 ± 0.18 under setting [1] and 5.11 ± 0.067 under setting [2].
For the sequence GKWPQVLFFPEGTCSNKKALLKFK [LPCAT4], the protein stability index stood at 2.52 ± 0.31 under setting [1] and 2.57 ± 0.45 under setting [2].
As for GLAMALEPNTTFLRKSLKAALKHL [FANCE], the protein stability index under setting [1] amounted to 2.48 ± 0.33 and the protein stability index under setting [2] came to 2.54 ± 0.62.
GLKASLERLQLEYVDVVFANRPDP [KCNAB2]: the protein stability index reads like this: under setting [1], 2.47 ± 0.42; under setting [2], 2.21 ± 0.37.
As for GLMTQSSLETHHYVDCGGNSTAI [TMEM106C], the protein stability index by setting is: under setting [3], 3.18 ± 0.074; under setting [4], 3.6 ± 0.13.
As to GLQRNLLVENIIDIYKQECSSRPL [TRIM63], the protein stability index reads like this: under setting [1], 2.71 ± 0.31; under setting [2], 2.87 ± 0.19.
For the sequence GMDDFLGVYSMPAGTKVFEVPEMS [TLE6], the protein stability index is, setting by setting: under setting [1], 3.08 ± 0.23; under setting [2], 3.15 ± 0.25.
The corresponding values for GNIIAHASTTRLYLRKGRGETRIC [RAD51] are 3.11 ± 0.44 and 3.16 ± 0.34.
The corresponding values for GNMANLSLHDHDGSSGASDQDTLA [DVL3] are 5.42 ± 0.12 and 5.3 ± 0.41.
For GPLPQSFDKEWVAKQTKRMLDMKV [COX4I1], in that order: 3.86 ± 0.15 and 3.86 ± 0.31.
Regarding GPRVGEALVSHPEVPLISFTGSQP [ALDH8A1], the protein stability index runs as follows: under setting [1], 3.77 ± 0.34; under setting [2], 4.09 ± 0.31.
For the sequence GPVPGTPGLPGSTGNPKSEEPEVP [SPNS1], the protein stability index under setting [1] was found to be 5.55 ± 0.2 and the protein stability index under setting [2] came out at 5.3 ± 0.34.
For GQFVFARDAKAAMAGRLMIRKLVA [AASDHPPT], the protein stability index by setting is: under setting [1], 2.08 ± 0.43; under setting [2], 2.02 ± 0.46.
For GQINVVKHLLNLGVEIDEINVYGN [ANKRD44], in that order: 2.32 ± 0.46 and 2.29 ± 0.3.
For GREDEDGWETRGDRKARKPLVEKK [HES6], in that order: 5.4 ± 0.14 and 5.34 ± 0.37.
For GRRATLQRLVEALEENELTSLAED [TRADD], in that order: 4.54 ± 0.19 and 4.43 ± 0.14.
The sequence GSAAPGSPLAADPACLGQPHTPGK [FOXJ1] came in with a protein stability index under setting [1] of 5.25 ± 0.29 and a protein stability index under setting [2] of 5.4 ± 0.13.
For GSCSTEVEKETQEKMTILQTYFRQ [ATP6V1G1], in that order: 2.5 ± 0.25 and 2.62 ± 0.3.
For GSGFGGGYGGGLGAGFGGGLGAGF [KRT16], in that order: 2.27 ± 0.25 and 2.54 ± 0.67.
The corresponding values for GSKKKFDKCMVCGGDGSGCSKQSG [ADAMTS4] are 4.18 ± 0.4 and 4.02 ± 0.34.
Sequence GSLPGPGQTSGAREPPQAVSIKEA [VENTX] came in with a protein stability index under setting [1] of 5.01 ± 0.41 and a protein stability index under setting [2] of 5.52 ± 0.2.
As for GTFQVNFYHDHTKIIICSQNEEYL [PLK2], the protein stability index stood at 2.5 ± 1.1 under setting [1] and 2.21 ± 0.42 under setting [2].
For GTIRPVRCPSSSLHMSQRERTWPP [C22orf15], in that order: 3.77 ± 0.098 and 3.75 ± 0.17.
The corresponding values for GTNEALLRQLRELEEQFALEAGGY [PRPH] are 4.07 ± 0.24 and 3.92 ± 0.26.
The corresponding values for GTQPRATKHKCRQLTKASLKPRGC [SPACA9] are 3.81 ± 0.29 and 3.95 ± 0.19.
GVCQSMCHDKYTKIFNDFKDRMKS [ZMYND11] gave a protein stability index under setting [1] of 3.11 ± 0.032 and a protein stability index under setting [2] of 2.92 ± 0.23.
Regarding GVVDSEDLPLNISREMLQQSKILK [HSP90AB1], the protein stability index by setting is: under setting [1], 4.09 ± 0.22; under setting [2], 4.14 ± 0.28.
As to GVVHPSNEVLSSDILPRWAIIGWL [INTS3], the protein stability index was 2.13 ± 0.41 under setting [1] and 2.18 ± 0.45 under setting [2].
For GWFWVCPGGGDICMYRHALPPGFV [ZC3H15], in that order: 2.83 ± 2.2 and 2.57 ± 0.8.
The corresponding values for GYQHVDLQNFSSSWSDGMAFCALV [SMTNL2] are 2.16 ± 0.49 and 2.01 ± 0.15.
HALGSPEKVKACQGQYETIERLRS [TBC1D10A]: the protein stability index reads like this: under setting [1], 4.03 ± 0.21; under setting [2], 3.88 ± 0.3.
HDVRLNGSAAGHVLVKDNGLGCKD [TENT5C]: the protein stability index reads like this: under setting [1], 4.88 ± 0.38; under setting [2], 4.92 ± 0.16.
Take HEEEPLGTAGPLALARDLLSETAD [GMPPB]: the protein stability index was 5.38 ± 0.42 under setting [1] and 5.18 ± 0.15 under setting [2].
The corresponding values for HELMLRFKDEYKSENIKLREENEK [CCDC89] are 5.21 ± 0.36 and 5.29 ± 0.13.
For HEVKCQGKPLAGIYRKREEKRNAG [KMT5A], in that order: 4.64 ± 0.55 and 5.06 ± 0.1.
For HFDATRGWLLTSGTDKVIKLWDMT [WDFY2], in that order: 2.43 ± 0.3 and 2.78 ± 0.41.
As for HGQENIVRILLRRGVDVSLQGKDA [RIPK4], the protein stability index came to 2.5 ± 0.087 under setting [1] and 3.13 ± 0.24 under setting [2].
HLIFSYSVWVLRDFPEDGLKIFTE [VPS39]: the protein stability index reads like this: under setting [1], 2.98 ± 0.58; under setting [2], 3.15 ± 0.54.
Consider HLLEAEPLSPIQASSVHLKSESSL, for which the protein stability index reads like this: under setting [1], 4.16 ± 0.1; under setting [2], 4.14 ± 0.15.
The corresponding values for HPNSRKSSAGGAKAGQPESRALAL [ZNF8] are 4.67 ± 0.36 and 4.77 ± 0.16.
As for HRRRSRERGPYRTRKHAHHCHKRR [CLK3], the protein stability index was determined as 4.49 ± 0.31 under setting [1] and 4.57 ± 0.25 under setting [2].
For HRWPPVWYLKEEDHYQRVKREREK [RHOBTB1], in that order: 3.75 ± 0.34 and 4.03 ± 0.28.
Turning to HSCVQIKNDVFICGGYNGEVILGD [KLHDC10], the protein stability index is, setting by setting: under setting [1], 1.94 ± 0.27; under setting [2], 2.62 ± 0.42.
The corresponding values for HSRVAKPHQREKIDKEIELHRILH [PLK2] are 3.42 ± 0.4 and 3.44 ± 0.07.
With HSVLQGFIPLFQKFRLTGFRKTD [TMEM40], the protein stability index is, setting by setting: under setting [3], 2.69 ± 0.62; under setting [4], 2.69 ± 0.43.
As to HTEVVRDLTFAPDGSLILVSASRD [WSB1], the protein stability index reads like this: under setting [1], 3.45 ± 0.054; under setting [2], 3.53 ± 0.27.
Regarding HTKRLYRAVVEAVHRLDLILCNKT [SMG5], the protein stability index is, setting by setting: under setting [1], 2.77 ± 0.36; under setting [2], 2.82 ± 0.65.
For HVLEGLFRTDPEAKVKLVFVEDQA [ZSWIM9], in that order: 2.51 ± 0.19 and 2.74 ± 0.24.
Take HVQKLSQECLKQLAIKKQQHIDNI [TRIM14]: the protein stability index was found to be 3.81 ± 0.36 under setting [1] and 3.75 ± 0.12 under setting [2].
For HVTDPLIGCKKPVSASGKEMDWAQ [SMG5], the protein stability index runs as follows: under setting [1], 3.78 ± 0.18; under setting [2], 4.04 ± 0.24.
The corresponding values for HVTVVILFFVPCIFLYARPNSTFP [OR4A15] are 2.83 ± 0.9 and 2.77 ± 0.51.
Take IAKHLKGRLGKQCRERWHNHLNPE [MYBL2]: the protein stability index came out at 2.25 ± 0.21 under setting [1] and 2.23 ± 0.13 under setting [2].
For ICKEVQAEQEPTRKLFEVESVTHH [SPAG8], in that order: 4.47 ± 0.12 and 4.77 ± 0.07.
For IDCKFNAESQGCNHEEDAGVRCNT [LOXL2], in that order: 5.13 ± 0.22 and 5.22 ± 0.1.
Regarding IDFIGQVHKTKEQFGQDGPISVHC [PTPRD], the protein stability index is 2.5 ± 0.26 under setting [1] and 2.81 ± 0.22 under setting [2].
For IDGKGRGVIATKQFSRGDFVVEYH [KMT5A], in that order: 2.91 ± 0.26 and 3.03 ± 0.35.
In the case of IDYYTETKILQERAVLGANDPEKN [NSDHL], the protein stability index by setting is: under setting [1], 4.76 ± 0.22; under setting [2], 5.02 ± 0.46.
For IEFNPRIGKWFDFKLFFNGRPGIV [DHCR7], in that order: 2.63 ± 0.44 and 2.91 ± 0.91.
The corresponding values for IGVILFSSAVYFAEADEPTTHFQS [KCNA4] are 2.36 ± 0.58 and 2.69 ± 1.
